Measurements taken from patent US12533321B2, “Polypeptide formulations for oral delivery” (Bhami's Research Laboratory, Pvt. Ltd., priority 2022, dated 2026).
Read-outs that look alike come from different tables or passages of the source. Each block holds one molecule with its values, some of them ahead of it.

Key:
[1] = minipig, in vivo, iv
Experimental: Pharmacokinetic analysis was conducted in Female Minipigs weighing 12±1 kg for 2 days. Pigs in the treatment group was fasted overnight prior to the test sample administration. All the test animals in the treatment groups were administered with respective test formulation to the pre-designated animals. The time of dosage of each animal was noted. Blood samples were collected at aforementioned time points 0 min, 5 min, 30 min, 1 hr, 4 hrs, 12 hrs, 24 hrs, and 48 hrs into an EDTA-blood collection tubes for the separation of plasma to determine insulin levels by ELISA. Plasma samples collected at different time points were analyzed by ELISA kit according to ABBEXA protocol. This kit is based on sandwich enzyme-linked immuno-sorbent assay technology. An antibody, anti-insulin was pre-coated onto a 96-well plate. Standards, test samples, and biotin-conjugated reagent were added to the wells and incubated. The HRP-conjugated reagent was then added, and the whole plate was incubated. Unbound conjugates were removed using wash buffer at each stage. TMB substrate was used to quantify the HRP enzymatic reaction. After TMB substrate was added, only wells that contain sufficient INS will produce a blue colored product, which then changes to yellow after adding the acidic stop solution. The intensity of the yellow colour is proportional to the INS amount bound on the plate. The Optical Density (OD) was measured spectrophotometrically at 450 nm in a microplate reader, from which the concentration of INS can be calculated.
(§1) Insulin was analyzed in plasma using a specific enzyme linked immunosorbent assay (ELISA). Pharmacokinetic endpoints were determined using noncompartmental methods using PK Solutions software. AUC was approximated using the trapezoidal rule on the observed concentrations. C max for each Insulin dose was derived as the maximum of all valid concentrations, and t max was then determined as the corresponding time point to C max. The terminal elimination rate constant (λ z) was estimated by log-linear regression on the terminal part of the concentration-time curve, and t ½ was then calculated as t ½=ln 2/λz.

[2] = minipig, in vivo, iv; remark: listed apart in the source
Experimental: Pharmacokinetic analysis was conducted in Female Minipigs weighing 12±1 kg for 2 days. Pigs in the treatment group was fasted overnight prior to the test sample administration. All the test animals in the treatment groups were administered with respective test formulation to the pre-designated animals. The time of dosage of each animal was noted. Blood samples were collected at aforementioned time points 0 min, 5 min, 30 min 1 hr, 4 hrs, 12 hrs, 24 hrs, and 48 hrs into an EDTA-blood collection tubes for the separation of plasma to determine insulin levels by ELISA. Plasma samples collected at different time points were analyzed by ELISA kit according to ABBEXA protocol. This kit is based on sandwich enzyme-linked immuno-sorbent assay technology. An antibody, anti-insulin was pre-coated onto a 96-well plate. Standards, test samples, and biotin-conjugated reagent were added to the wells and incubated. The HRP-conjugated reagent was then added, and the whole plate was incubated. Unbound conjugates were removed using wash buffer at each stage. TMB substrate was used to quantify the HRP enzymatic reaction. After TMB substrate was added, only wells that contain sufficient INS will produce a blue colored product, which then changes to yellow after adding the acidic stop solution. The intensity of the yellow colour is proportional to the INS amount bound on the plate. The Optical Density (OD) was measured spectrophotometrically at 450 nm in a microplate reader, from which the concentration of INS can be calculated.
as §1

[3] = Pharmacokinetics of Semaglutide in albumin crystal sugar truffle shell vs SC, plasma Semaglutide by ELISA; type: in vivo, Wistar Rats; settings: 0.1 mg
Experimental: The semaglutide was processed to prepare albumin microparticles containing semaglutide according to the procedure mentioned under Example 5. The microparticle of albumin crystals containing semaglutide was then lyophilized after washing with cold isopropanol.
Pharmacokinetic analysis was conducted in male Wistar Rats weighing 150 to 250 grams for 1 day. Rats in the oral treatment group was fasted overnight. […] The time of dosage of each animal was noted. […] An antibody, anti-Semaglutide was pre-coated onto a 96-well plate. […] The intensity of the yellow color is proportional to the Semaglutide amount bound on the plate.

Molecule: Human Insulin R: Humulin R (insulin human recombinant) U-100, marketed liquid formulation, given IV
Cl_obs [1]: 0.000 (mg)/(mU/L)/h
Cl_pred [1]: 0.000 (mg)/(mU/L)/h
AUC 0-inf_obs ([1]; 0.347 mg): 803.478 mU/L * h
AUC 0-inf_pred ([1]; 0.347 mg): 800.145 mU/L * h
AUC t-inf_obs ([1]; 0.347 mg): 20.830 mU/L * h
AUC t-inf_pred ([1]; 0.347 mg): 17.497 mU/L * h
AUC(0-t) ([1]; 0.347 mg): 782.648 mU/L * h
C0 ([1]; 0.347 mg): 105.903 mU/L
Cmax ([1]; 0.347 mg): 998.596 mU/L
MRT 0-inf_obs ([1]; 0.347 mg): 1.532 h
MRT 0-inf_pred ([1]; 0.347 mg): 1.471 h
MRT 0-t ([1]; 0.347 mg): 1.143 h
Tmax ([1]; 0.347 mg): 4.8 min
Vss_obs ([1]; 0.347 mg): 0.001 (mg)/(mU/L)
Vss_pred ([1]; 0.347 mg): 0.001 (mg)/(mU/L)
Vz_obs ([1]; 0.347 mg): 0.002 (mg)/(mU/L)
Vz_pred ([1]; 0.347 mg): 0.002 (mg)/(mU/L)
t½ ([1]; 0.347 mg): 2.873 h
Cl_obs [2]: 0.000 (mg)/(mU/L)/h
Cl_pred [2]: 0.000 (mg)/(mU/L)/h
AUC 0-inf_obs ([2]; 0.347 mg): 803.478 mU/L * h
AUC 0-inf_pred ([2]; 0.347 mg): 800.145 mU/L * h
AUC t-inf_obs ([2]; 0.347 mg): 20.830 mU/L * h
AUC t-inf_pred ([2]; 0.347 mg): 17.497 mU/L * h
AUC(0-t) ([2]; 0.347 mg): 782.648 mU/L * h
C0 ([2]; 0.347 mg): 105.903 mU/L
Cmax ([2]; 0.347 mg): 998.596 mU/L
MRT 0-inf_obs ([2]; 0.347 mg): 1.532 h
MRT 0-inf_pred ([2]; 0.347 mg): 1.471 h
MRT 0-t ([2]; 0.347 mg): 1.143 h
Tmax ([2]; 0.347 mg): 4.8 min
Vss_obs ([2]; 0.347 mg): 0.001 (mg)/(mU/L)
Vss_pred ([2]; 0.347 mg): 0.001 (mg)/(mU/L)
Vz_obs ([2]; 0.347 mg): 0.002 (mg)/(mU/L)
Vz_pred ([2]; 0.347 mg): 0.002 (mg)/(mU/L)
t½ ([2]; 0.347 mg): 2.873 h

Mean Semaglutide levels ([3]; 0 h, SC): 0.00 ± 0.00 ng/mL
AUMC 0-inf_obs ([3]; SC): 29775275.74 ng/ml * h^2
AUMC 0-inf_pred ([3]; SC): 29434343.61 ng/ml * h^2
AUMC 0-t ([3]; SC): 2165980.669 ng/ml * h^2
AUMC 0-t/0-inf_obs ([3]; SC): 0.07274
AUMC 0-t/0-inf_pred ([3]; SC): 0.07359
AUMC t-inf_obs ([3]; SC): 27609295.07 ng/ml * h^2
AUMC t-inf_pred ([3]; SC): 27268362.94 ng/ml * h^2
Clast_obs ([3]; SC): 6.80865 µg/mL
Clast_pred ([3]; SC): 6.725 µg/mL
Lambda_z ([3]; SC): 0.01894 h⁻¹
Tlag ([3]; SC): 0 h
Tlast ([3]; SC): 24 h
level at 0.25 h ([3]; male, Wistar, rat, plasma, 0.25 h, SC, read-out: Mean Semaglutide levels): 11.9 ± 2.42 µg/mL
level at 0.5 h ([3]; male, Wistar, rat, plasma, 0.5 h, SC, read-out: Mean Semaglutide levels): 11.2 ± 1.47 µg/mL
level at 1 h ([3]; male, Wistar, rat, plasma, 1 h, SC, read-out: Mean Semaglutide levels): 13.1 ± 1.67 µg/mL
level at 2 h ([3]; male, Wistar, rat, plasma, 2 h, SC, read-out: Mean Semaglutide levels): 12.6 ± 2.93 µg/mL
level at 4 h ([3]; male, Wistar, rat, plasma, 4 h, SC, read-out: Mean Semaglutide levels): 10.3 ± 2.79 µg/mL
level at 8 h ([3]; male, Wistar, rat, plasma, 8 h, SC, read-out: Mean Semaglutide levels): 8.56 ± 1.42 µg/mL
level at 24 h ([3]; male, Wistar, rat, plasma, 24 h, SC, read-out: Mean Semaglutide levels): 6.81 ± 1.73 µg/mL
MRT inf ([3]; rat, in vivo, sc, SC, read-out: MRT 0-inf_obs): 52.6 h
MRT inf ([3]; rat, in vivo, sc, SC, read-out: MRT 0-inf_pred): 52.4 h
MRT last ([3]; rat, in vivo, sc, read-out: MRT 0-t): 10.5 h
Molecule: CC[C@H](C)[C@H](NC(=O)[C@H](Cc1ccccc1)NC(=O)[C@H](CCC(=O)O)NC(=O)[C@H](CCCCNC(=O)COCCOCCNC(=O)COCCOCCNC(=O)CC[C@H](NC(=O)CCCCCCCCCCCCCCCCC(=O)O)C(=O)O)NC(=O)[C@H](C)NC(=O)[C@H](C)NC(=O)[C@H](CCC(N)=O)NC(=O)CNC(=O)[C@H](CCC(=O)O)NC(=O)[C@H](CC(C)C)NC(=O)[C@H](Cc1ccc(O)cc1)NC(=O)[C@H](CO)NC(=O)[C@H](CO)NC(=O)[C@@H](NC(=O)[C@H](CC(=O)O)NC(=O)[C@H](CO)NC(=O)[C@@H](NC(=O)[C@H](Cc1ccccc1)NC(=O)[C@@H](NC(=O)CNC(=O)[C@H](CCC(=O)O)NC(=O)C(C)(C)NC(=O)[C@@H](N)Cc1cnc[nH]1)[C@@H](C)O)[C@@H](C)O)C(C)C)C(=O)N[C@@H](C)C(=O)N[C@@H](Cc1c[nH]c2ccccc12)C(=O)N[C@@H](CC(C)C)C(=O)N[C@H](C(=O)N[C@@H](CCCNC(=N)N)C(=O)NCC(=O)N[C@@H](CCCNC(=N)N)C(=O)NCC(=O)O)C(C)C [Semaglutide]
